Assay results as given in publication PMC10401102, “Repurposing CRISPR/Cas to Discover SARS‐CoV‐2 Detecting and Neutralizing Aptamers”.

Experiments:
[1] = target: T1, SARS-CoV-2 Spike RBD (original) (SARS-CoV-2 (original), UniProt P0DTC2 319-541); assay: ELONA; 25 C
[2] = target: T1, SARS-CoV-2 Spike RBD (original); assay: EMSA

## ACUUGGCCACGUCGACUGAAAUCCUCUUCCUGCAGGGCCAAGUG (structured_RNA) [#2-1-18]
[1]
  Kd: 16.8 nM

## ACUUGGCCAAUUACCGUAGUUUUUGUAGUCUGCAGGGCCAAGUG (structured_RNA) [#5-2-15]
[1]
  Kd: 24.7 nM

## ACUUGGCCACGUCGACUGAAAUCCUCUUCCUGCAGGGCCAAGUG (structured_RNA, 2'-F at pyrimidines, 2'-O-methyl at purines) [#2-1-18-2'-F-O]
[2]
  binding result: binds

## ACUUGGCCAAUUACCGUAGUUUUUGUAGUCUGCAGGGCCAAGUG (structured_RNA, 2'-F at pyrimidines, 2'-O-methyl at purines) [#5-2-15-2'-F-O]
[2]
  binding result: binds

## ACUUGGCCAUUUUUCUUUUUCUUUUUCUUUUUCUGCAGGGCCAAGUG (ssRNA) [NC-RNA apt]
[2]
  binding result: no binding
